Laboratory results reported in doi:10.1101/2021.08.20.457142.

B1: MKK6 D-site peptide / p38-alpha (MAPK14) L195A, full length (parent complex)
chain 1: SQSKGKKRNPGLKIPKEAFEQP
chain 2: MSQERPTFYRQELNKTVWEVPERYQNLSPVGSGAYGSVCAAFDTKTGHRVAVKKLSRPFQSIIHAKRTYRELRLLKHMKHENVIGLLDVFTPARSLEEFNDVYLVTHLMGADLNNIVKCQKLTDDHVQFLIYQILRGLKYIHSADIIHRDLKPSNLAVNEDCELKILDFGLARHTDDEMTGYVATRWYRAPEIMANWMHYNQTVDIWSVGCIMAELLTGRTLFPGTDHIDQLKLILRLVGTPGAELLKKISSESARNYIQSLAQMPKMNFANVFIGANPLAVDLLEKMLVLDSDKRITAAQALAHAYFAQYHDPDDEPVAEPYDQSFESRDFLIDEWKSLTYDEVISFVPPPLDQEEMES

Variants of: B1

Point of comparison: chain 1 SQSKPKKRNPGLKIPKEAFEQP [chain 1 G5P], screen value 1.65 Z-score of the enrichment rate within one screen of 711 sequences. Against it:
- chain 1 SQSKGKKRNPGWKIPKEAFEQP [chain 1 L12W] — lower, -0.0439 Z-score of the enrichment rate within one screen of 711 sequences
- chain 1 SQSKGKKRNPGCKIPKEAFEQP [chain 1 L12C] — lower, -0.618 Z-score of the enrichment rate within one screen of 711 sequences
- chain 1 SQSKGKKRNPGPKIPKEAFEQP [chain 1 L12P] — lower, -0.143 Z-score of the enrichment rate within one screen of 711 sequences
- chain 1 SQSKGKARNPGLKIAKEAFEQP [chain 1 K7A, chain 1 P15A] — lower, 0.766 Z-score of the enrichment rate within one screen of 711 sequences
- chain 1 SQSKGKKRNPGAAIPKEAFEQP [chain 1 L12A, chain 1 K13A] — lower, -1.08 Z-score of the enrichment rate within one screen of 711 sequences
- chain 1 SQSKGAKRAPGLKIPKEAFEQP [chain 1 K6A, chain 1 N9A] — lower, -0.245 Z-score of the enrichment rate within one screen of 711 sequences
- chain 1 SQSAAKKRNPGLKIPKEAFEQP [chain 1 K4A, chain 1 G5A] — lower, 0.605 Z-score of the enrichment rate within one screen of 711 sequences
- chain 1 SQSKGKKKNPGLKIPKEAFEQP [chain 1 R8K] — lower, 1.16 Z-score of the enrichment rate within one screen of 711 sequences
- chain 1 SQSKGKKPNPGLKIPKEAFEQP [chain 1 R8P] — lower, -0.0227 Z-score of the enrichment rate within one screen of 711 sequences
- chain 1 SQSKGKKGNPGLKIPKEAFEQP [chain 1 R8G] — lower, -0.084 Z-score of the enrichment rate within one screen of 711 sequences
- chain 1 SQSKGKKVNPGLKIPKEAFEQP [chain 1 R8V] — lower, -0.0927 Z-score of the enrichment rate within one screen of 711 sequences
- chain 1 SQSKGKKWNPGLKIPKEAFEQP [chain 1 R8W] — lower, 0.178 Z-score of the enrichment rate within one screen of 711 sequences
- chain 1 SQSKGKKFNPGLKIPKEAFEQP [chain 1 R8F] — lower, 0.775 Z-score of the enrichment rate within one screen of 711 sequences
- chain 1 SQSKGKKQNPGLKIPKEAFEQP [chain 1 R8Q] — lower, -0.189 Z-score of the enrichment rate within one screen of 711 sequences
- chain 1 SQAKGAKRNPGLKIPKEAFEQP [chain 1 S3A, chain 1 K6A] — lower, 0.57 Z-score of the enrichment rate within one screen of 711 sequences
- chain 1 SQHKGKKRNPGLKIPKEAFEQP [chain 1 S3H] — lower, 1.56 Z-score of the enrichment rate within one screen of 711 sequences
- chain 1 SQRKGKKRNPGLKIPKEAFEQP [chain 1 S3R] — higher, 2.3 Z-score of the enrichment rate within one screen of 711 sequences
- chain 1 SQYKGKKRNPGLKIPKEAFEQP [chain 1 S3Y] — higher, 1.82 Z-score of the enrichment rate within one screen of 711 sequences
- chain 1 SQGKGKKRNPGLKIPKEAFEQP [chain 1 S3G] — lower, 1.64 Z-score of the enrichment rate within one screen of 711 sequences
- chain 1 SQAKGKKRNPGLKIPKEAFEQP [chain 1 S3A] — lower, 1.56 Z-score of the enrichment rate within one screen of 711 sequences
- chain 1 SQMKGKKRNPGLKIPKEAFEQP [chain 1 S3M] — higher, 2.21 Z-score of the enrichment rate within one screen of 711 sequences
- chain 1 SQQKGKKRNPGLKIPKEAFEQP [chain 1 S3Q] — higher, 1.81 Z-score of the enrichment rate within one screen of 711 sequences
- chain 1 SQTKGKKRNPGLKIPKEAFEQP [chain 1 S3T] — higher, 1.74 Z-score of the enrichment rate within one screen of 711 sequences
- chain 1 SQSAGKKRNPALKIPKEAFEQP [chain 1 K4A, chain 1 G11A] — lower, 0.565 Z-score of the enrichment rate within one screen of 711 sequences
- chain 1 SQSKGKKRNPGLKRPKEAFEQP [chain 1 I14R] — lower, -1.31 Z-score of the enrichment rate within one screen of 711 sequences
- chain 1 SQSKGKKRNPGLKMPKEAFEQP [chain 1 I14M] — lower, 0.51 Z-score of the enrichment rate within one screen of 711 sequences
- chain 1 SQSKGKKRNPGLKYPKEAFEQP [chain 1 I14Y] — lower, -1.19 Z-score of the enrichment rate within one screen of 711 sequences
- chain 1 SQSKGKKRNPGLKCPKEAFEQP [chain 1 I14C] — lower, -0.81 Z-score of the enrichment rate within one screen of 711 sequences
- chain 1 SQSKAKKRNAGLKIPKEAFEQP [chain 1 G5A, chain 1 P10A] — lower, 0.354 Z-score of the enrichment rate within one screen of 711 sequences
- chain 1 SQSKGKARAPGLKIPKEAFEQP [chain 1 K7A, chain 1 N9A] — lower, 0.105 Z-score of the enrichment rate within one screen of 711 sequences
- chain 1 SQSAGKKRAPGLKIPKEAFEQP [chain 1 K4A, chain 1 N9A] — lower, 0.386 Z-score of the enrichment rate within one screen of 711 sequences
- chain 1 SQSKGKKRNPAAKIPKEAFEQP [chain 1 G11A, chain 1 L12A] — lower, -0.887 Z-score of the enrichment rate within one screen of 711 sequences
- chain 1 SQSKGKKRNPGLKIMKEAFEQP [chain 1 P15M] — higher, 1.84 Z-score of the enrichment rate within one screen of 711 sequences
- chain 1 SQSKGKKRNPGLKIHKEAFEQP [chain 1 P15H] — lower, 1.18 Z-score of the enrichment rate within one screen of 711 sequences
- chain 1 SQSKGKKRNPGLKIDKEAFEQP [chain 1 P15D] — lower, 0.934 Z-score of the enrichment rate within one screen of 711 sequences
- chain 1 SQSKGKKRNPGLKIQKEAFEQP [chain 1 P15Q] — lower, 0.909 Z-score of the enrichment rate within one screen of 711 sequences
- chain 1 SQSKGKKRNPGLKIWKEAFEQP [chain 1 P15W] — lower, 0.627 Z-score of the enrichment rate within one screen of 711 sequences
- chain 1 SQSKGKKRNPGLKIVKEAFEQP [chain 1 P15V] — higher, 3.1 Z-score of the enrichment rate within one screen of 711 sequences
- chain 1 SQSKGKKRNPGLKIIKEAFEQP [chain 1 P15I] — lower, 1.61 Z-score of the enrichment rate within one screen of 711 sequences
- chain 1 SQSKGKKRNPGLKISKEAFEQP [chain 1 P15S] — higher, 2.36 Z-score of the enrichment rate within one screen of 711 sequences
- chain 1 SQSKGKKRNPGLYIPKEAFEQP [chain 1 K13Y] — lower, -0.0639 Z-score of the enrichment rate within one screen of 711 sequences
- chain 1 SQSKGKKRNPGLMIPKEAFEQP [chain 1 K13M] — lower, 0.213 Z-score of the enrichment rate within one screen of 711 sequences
- chain 1 SQSKGKKRNPGLQIPKEAFEQP [chain 1 K13Q] — lower, -0.188 Z-score of the enrichment rate within one screen of 711 sequences
- chain 1 SQSAGAKRNPGLKIPKEAFEQP [chain 1 K4A, chain 1 K6A] — lower, -0.342 Z-score of the enrichment rate within one screen of 711 sequences
- chain 1 SQSKRKKRNPGLKIPKEAFEQP [chain 1 G5R] — higher, 3.17 Z-score of the enrichment rate within one screen of 711 sequences
- chain 1 SQSKYKKRNPGLKIPKEAFEQP [chain 1 G5Y] — higher, 2 Z-score of the enrichment rate within one screen of 711 sequences
- chain 1 SQSKIKKRNPGLKIPKEAFEQP [chain 1 G5I] — higher, 2.27 Z-score of the enrichment rate within one screen of 711 sequences
- chain 1 SQSKEKKRNPGLKIPKEAFEQP [chain 1 G5E] — lower, 0.392 Z-score of the enrichment rate within one screen of 711 sequences
- chain 1 SQSKGKKRNPALAIPKEAFEQP [chain 1 G11A, chain 1 K13A] — lower, -0.412 Z-score of the enrichment rate within one screen of 711 sequences
- chain 1 SQSKGKKANPGLAIPKEAFEQP [chain 1 R8A, chain 1 K13A] — lower, -1.04 Z-score of the enrichment rate within one screen of 711 sequences
